Experimental data from patent publication US20260240884A1, “MIXTURE OF HUMAN MILK OLIGOSACCHARIDES” (N.V. Nutricia, priority 2023, published 2026).

System: IL-8 secretion of HT-29 cells
Experiment: IL-8 secretion and viability of HT-29 cells pre-incubated with test compounds and challenged with Lyovec-complexed Poly I:C
Assay type: cell-based, Human

B1: Lactoferrin: lactoferrin, control test compound (protein, UniProt P02788 20-710, looked up)
Lactotransferrin: GRRRSVQWCAVSQPEATKCFQWQRNMRKVRGPPVSCIKRDSPIQCIQAIAENRADAVTLDGGFIYEAGLAPYKLRPVAAEVYGTERQPRTHYYAVAVVKKGGSFQLNELQGLKSCHTGLRRTAGWNVPIGTLRPFLNWTGPPEPIEAAVARFFSASCVPGADKGQFPNLCRLCAGTGENKCAFSSQEPYFSYSGAFKCLRDGAGDVAFIRESTVFEDLSDEAERDEYELLCPDNTRKPVDKFKDCHLARVPSHAVVARSVNGKEDAIWNLLRQAQEKFGKDKSPKFQLFGSPSGQKDLLFKDSAIGFSRVPPRIDSGLYLGSGYFTAIQNLRKSEEEVAARRARVVWCAVGEQELRKCNQWSGLSEGSVTCSSASTTEDCIALVLKGEADAMSLDGGYVYTAGKCGLVPVLAENYKSQQSSDPDPNCVDRPVEGYLAVAVVRRSDTSLTWNSVKGKKSCHTAVDRTAGWNIPMGLLFNQTGSCKFDEYFSQSCAPGSDPRSNLCALCIGDEQGENKCVPNSNERYYGYTGAFRCLAENAGDVAFVKDVTVLQNTDGNNNEAWAKDLKLADFALLCLDGKRKPVTEARSCHLAMAPNHAVVSRMDKVERLKQVLLHQQAKFGRNGSDCPDKFCLFQSETKNLLFNDNTECLARLHGKTTYEKYLGPQYVAGITNLKKCSTSPLLEACEFLRK
- Mean IL-8 secretion (0.1% + Poly I:C, Poly I:C alone 21799.28): 9201.69 pg/mL
- Mean IL-8 secretion (0.1%, no Poly I:C, Medium 359.54): 343.19 pg/mL
